Experiments:
[1] = molecular target: TSH receptor (detergent solubilised TSH receptor preparation) (UniProt P16473); assay: 125I-TSH, TSHR coated tubes; 20 µg/ml
[2] = molecular target: TSH receptor (detergent solubilised TSH receptor preparation) (UniProt P16473); assay: 125I-TSH, TSHR coated tubes; 200 µg/ml
[3] = molecular target: TSH receptor (detergent solubilised TSH receptor preparation) (UniProt P16473); assay: solubilised TSHR, PEG method; IgG 100 µg/ml; competitor 125I-16E5 Fab

TSH receptor (detergent solubilised TSH receptor preparation), sequence (P16473 21-764 limits assumed): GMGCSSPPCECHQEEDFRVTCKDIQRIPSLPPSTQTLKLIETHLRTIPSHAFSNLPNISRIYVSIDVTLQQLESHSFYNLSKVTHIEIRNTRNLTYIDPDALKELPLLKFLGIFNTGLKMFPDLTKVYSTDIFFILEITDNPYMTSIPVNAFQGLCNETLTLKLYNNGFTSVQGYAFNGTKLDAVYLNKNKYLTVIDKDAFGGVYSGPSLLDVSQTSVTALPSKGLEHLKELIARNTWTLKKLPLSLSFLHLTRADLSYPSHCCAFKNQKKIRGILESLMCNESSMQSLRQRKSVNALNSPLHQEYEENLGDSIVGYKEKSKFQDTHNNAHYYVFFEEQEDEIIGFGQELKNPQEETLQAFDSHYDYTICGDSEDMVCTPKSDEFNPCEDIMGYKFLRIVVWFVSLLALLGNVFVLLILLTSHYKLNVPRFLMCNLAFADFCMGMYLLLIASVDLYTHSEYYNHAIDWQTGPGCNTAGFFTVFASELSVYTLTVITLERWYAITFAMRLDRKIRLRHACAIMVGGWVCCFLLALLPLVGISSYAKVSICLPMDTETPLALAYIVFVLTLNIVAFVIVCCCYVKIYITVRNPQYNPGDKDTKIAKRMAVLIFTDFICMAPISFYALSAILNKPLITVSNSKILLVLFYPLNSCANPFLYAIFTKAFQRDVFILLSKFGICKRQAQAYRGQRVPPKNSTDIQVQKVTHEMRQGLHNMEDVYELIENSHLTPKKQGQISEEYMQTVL

% inhibition of TSH binding [1]: 6.1%
% inhibition of TSH binding [2]: 30.7%
% inhibition of 125I-16E5 Fab binding [3]: 8.8%
B1: 3B3 IgG (antibody, V domains shown)
VH: DVQLQQPGAELVKPGASVKLSCTTSGVNIKDTYMHWMKQRPEQGLEWIGRIDPANGNTKYDPKFRGKATITADTSSNTVYVQLRSLTSEDTAVYYCAYDGYWGQGTLVTVSA
VL: NIVMTQTPASLAVSLGQRATISCRASESVDSYGNNFMHWYQQKPGQSPRLLIYRASNLESGIPARFSGSGSRTDFTLTTNPVEADDVATYYCQQSHKDPLTFGAGTKLELK
